For orientation: koff means the first-order rate constant of dissociation. A higher koff goes with fast dissociation.

Ends that are not written are not given here. Ser‑Gly linker = flexible serine-glycine linker, six amino acids long

Test [1] concerns the target T1, B-cell lymphoma extra-large protein (Bcl-xL), first 209 amino acids with N-terminal avitag (UniProt Q07817 1-209, biotin on the avitag (BirA biotin ligase); a non-biotinylated form was used as the excess competitor in solution in the off-rate assays).
T1 construct: range 1-209; Expressed in E. coli BL21(DE3); Used in solution (forward assays) or immobilized through biotin on streptavidin plates or beads (reverse assay, off-rate and HTSK experiments); not shown: His tag implied (pET24a NdeI/XhoI, Ni-NTA purification, anti-HIS probe)
The test is described as follows: radiolabeled HA-tagged peptide off-rate from immobilized Bcl-xL. The method, then: The radiolabeled peptides were allowed to bind to 30 pmol immobilized Bcl-xL for 1 hour in sample buffer (1×PBS, 1% (w/v) BSA, 0.1% (v/v) Tween 20, 10 μM biotin). The beads were magnetically separated, and washed 5× with sample buffer. The beads were resuspended in 1 mL of sample buffer containing 3 μM non-biotinylated Bcl-xL (˜100× molar excess relative to immobilized biotinylated Bcl-xL). At various time points, 100 μL of slurry was removed and the beads were magnetically separated and washed. The percent remaining at each time point was determined by dividing the counts per minute (cpm) on beads by total cpm (beads+washes). The peptide off-rate was determined by an exponential fit of the Percent counts on beads vs. Time (s).
The peptide ligands were made using a C-terminal HA tag, and affinity purified.

Test [2] addresses T1, B-cell lymphoma extra-large protein …. The test is described as follows: radiolabeled peptide off-rate, reference D1.

T1 sequence (Q07817 other isoform, or with tags, fused parts or gaps): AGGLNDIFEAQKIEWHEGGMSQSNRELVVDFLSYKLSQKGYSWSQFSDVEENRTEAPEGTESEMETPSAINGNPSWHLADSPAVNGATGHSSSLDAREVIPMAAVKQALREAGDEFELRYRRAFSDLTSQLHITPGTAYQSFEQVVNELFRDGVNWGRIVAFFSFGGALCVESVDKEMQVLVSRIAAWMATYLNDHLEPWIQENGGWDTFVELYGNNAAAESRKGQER

B1: D79, radiolabeled in vitro translated peptide with C-terminal serine-glycine linker and HA tag (peptide)
peptide: MIDTNVILNYKKAADHFSITM-{Ser‑Gly linker-HA tag}
modifications: also: 35S-labeled methionine
notes: Frequency rank 79 in the doped selection pool; also called peptide D79; not shown: flexible serine-glycine linker, six amino acids long; HA tag
The molecule B1 had a koff in test [1] of 5.9e-07 s⁻¹. In addition, in test [2], the “fold slower off-rate than D1” value was over 3 fold.

The values above are taken from patent US20180172683A1 (published 2018).
